Data set [1] can be described thus: Pharmacokinetic study of RXFP2 mAbs in rat. In kind it is in vivo, Wistar Han rats. The conditions noted are these: for half-life, extrapolated values: Wistar Han rats, 1 mg/kg sc., over 28 days; for estimated dose to achieve tenfold higher IC50 HEK-rRXFP2 cAMP activity for approximately 28 days in rat: from trough concentration, dose-linearity assumed; for AUClast / Cmax / Tmax: male Wistar Han rats, 1 mg/kg s.c., n = 3, mean ± SD. How it is done:
For the pharmacokinetic study of RXFP2 mAbs in rat, 1G1, 2D4, 4B1, 4G6, 1F2, and 3F3 were prepared in phosphate buffered saline (0.100 mg/mL) with low endotoxin (≤ 0.76 EU/mL). Adult male Wistar Han rats (n = 3/mAb) were administered 1 mg/kg subcutaneously (10 mL/kg). Blood samples (100 µL) were collected in EDTA containing tubes at 0.25, 3, 6 24, 48, 96, 168 (day 7), 336 (day 14), 504 (day 21), and 672 (day 28) hours post dose, immediately centrifuged (6100 rpm), and 50 µL plasma stored at − 80 °C until assay. Rats maintained health throughout the study and were anesthetized (isoflurane to effect) and euthanized on day 28.
Frozen rat plasma samples were thawed and analyzed using a qualified analytical method based on sample dilution, followed by Electrochemiluminescence immunoassay analysis. The lower limit of quantification (LLQ) was 0.1 µg/mL using a 10 µL aliquot of 51-fold diluted rat plasma with a higher limit of quantification (HLQ) of 10 µg/mL. RXFP2 mAbs were captured with LDLa protein and detected with sulfo-tag labeled mouse anti-rat IgG2b. The computer systems that were used to acquire and quantify data included Gyrolab Workstation Version 8.1.5 and Watson LIMS version 7.6.1. Rat pharmacokinetic parameters were calculated by non-compartmental analysis (NCA) analysis using WinNonlin Phoenix 64 (version 8.3). Values are reported in mean ± standard deviation.

Data set [2] addresses T1, rat RXFP2 (Rattus norvegicus, UniProt F7EMH8). Nature of the data set: INSL3-stimulated CYP11B1 mRNA expression in H295R stably expressing rat RXFP2. The class given is cell-based. More on the design: expressed in transfected cells. The conditions noted are these: INSL3 EC80 (3.5 nM), 48 h, qPCR; N = 2. On the procedure: (§1) RXFP2 antagonists were added to H295R-rRXFP2 before addition of INSL3 EC80 (3.5 nM) for 48 h, whereupon the cells and supernatants were collected. CYP11B1 and CYP11B2 mRNA were determined by qPCR and the RXFP2 blocker potencies were calculated (Fig. 5a). Fifteen antibodies have IC50s < 50 nM, and three of the top antibodies (1F2, 4G6, and 2D4) were selected for evaluation in steroid hormone secretion assays by ELISA.
(§2) Data entered as XY table, with x = [Inhibitor] (nM) and y = CYP11B2 or CYP11B1 fold change.

The target in data set [3] is T1, rat RXFP2. Nature of the data set: INSL3-stimulated CYP11B2 mRNA expression in H295R stably expressing rat RXFP2. In kind it is cell-based. More on the design: expressed in transfected cells. The conditions noted are these: INSL3 EC80 (3.5 nM), 48 h, qPCR; N = 2. How it is done:
as §1, §2

The target of data set [4] is T1, rat RXFP2. Nature of the data set: Cortisol secretion (ELISA) in H295R stably expressing rat RXFP2. The conditions noted are these: H295R-rRXFP2, 3.5 nM INSL3, 48 h, read-out: IC50 on INSL3-induced cortisol release. Further details: expressed in transfected cells. In kind it is cell-based. How it is done:
as §1
(§3) The day after seeding, H295R cells were treated and incubated for 48 h before supernatants and cell lysates were collected. Treatments included INSL3, IgG, 1F2, and 4G6 at 0.035 pM–3.5 µM, 2D4 at 0.01 nM–1 uM, or phosphate buffered saline control. In RXFP2 antagonist assays, 3.5 nM INSL3 was used as the stimulus. Cortisol present in the adrenal cell supernatant at 48 h post treatment was detected by ELISA (R&D KGE008B). Sample dilution was optimized at 1/90 using a standard curve. Aldosterone was below the limit of detection by ELISA (R&D KGE016) and required liquid–liquid extraction (LLE) twice using methyl tetra butyl ether. Post extraction samples were dried (SPE Nitrogen dryer) and reconstituted for ELISA analysis. All samples were run in duplicates.

For data set [5], the target named is T1, rat RXFP2. Nature of the data set: INSL3-stimulated cAMP assay in HEK293 stably expressing rat RXFP2.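 For all read-outs here: cAMP measured with an HitHunter kit in 384-well plates, 11-point dose–response curves up to 1 µM antibody, four-parameter variable-slope fit.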 The conditions noted are these: INSL3 EC80-stimulated cAMP, stable expression, N = 2; for IC50: read-out: HEK293-rat RXFP2 cAMP IC50.
Method: RXFP activity assays were developed in HEK293 with stable expression of RXFP2 or RXFP1.
The same approach was used to generate stable HEK293 lines expressing human and rat RXFP1 and RXFP2 cDNA. The cAMP assay was conducted using the Eurofin Hithunter kit per manufacturer’s instructions in a 384-well format. All dose curve fitting and EC50 and IC50 determinations were performed in Prism (v9.3.0) using the non-linear fit, variable slope (four parameter) function.
A further data set has as its target human RXFP2 (Homo sapiens, UniProt Q8WXD0). Nature of the data set: INSL3-stimulated cAMP assay in HEK293 stably expressing human RXFP2. The conditions noted are these: INSL3 EC80-stimulated cAMP, stable expression, N = 2; for IC50: read-out: HEK293-human RXFP2 cAMP IC50.
Data set [6] deals with T1, rat RXFP2. Nature of the data set: Aldosterone secretion (ELISA) in H295R stably expressing rat RXFP2. In kind it is cell-based. More on the design: expressed in transfected cells. The conditions noted are these: H295R-rRXFP2, 3.5 nM INSL3, 48 h, read-out: IC50 on INSL3-induced aldosterone release. On the procedure: as §1, §3
Another data set addresses T2, human LDLa-linker (Homo sapiens, UniProt Q8WXD0).
T2 construct: human LDLa linker [huRXFP2-LDLa-linker(38-105)-ratFc-8XHIS]; enterokinase cleavage site (C); rat Fc (C, cleaved yes); 8xHis (C, cleaved yes); made in house; host or cells: Expi293
The data set is described as follows: Biacore S200 binding to human LDLa-linker protein. On the procedure: Goat anti Rat Fc gamma fragment specific (Jackson Immunoresearch, 112-005-071) was immobilized at 30 µg/mL to a Series S CM5 chip (Cytiva Life Sciences). In three separate runs, twenty different purified recombinant rat anti RXFP2 antibodies were then captured to the CM5 chip at a concentration of 5 µg/mL. The antibody panel was captured; rat LDLa-linker or human LDLa-linker protein was flowed as analyte at the following concentrations: 20 nM, 10 nM, 5 nM, 2.5 nM, […], and 0 nM. Antibody kinetics were evaluated using a 1:1 fit model (Biacore S200).

Data set [7] has as its target T3, human LDLa peptide (UnitProt Q8WXD0 43-80) (Homo sapiens, UniProt Q8WXD0).
T3 construct: human LDLa peptide (Q8WXD0 43-80)
The data set is described as follows: ELISA binding to linker-less human LDLa peptide. On the procedure:
The human/rat RXFP2 cross reactive antibodies belong to two epitope bins and were further evaluated for binding to the linker-less human LDLa peptide (UnitProt Q8WXD0 43-80) by ELISA. […] The different domain requirements for binding are consistent with results from the binning experiment showing 4F6 and 4G6 are in a separate bin from 4B1.
Rat LDLa-linker_ratFc, human LDLa-linker_ratFc, or ratFc, or human LDLa peptide (Q8WXD0 43-80) was diluted to 1 µg/mL in 1X PBS and immobilized in separate 96-well ELISA plates (Nunc Maxisorp), 50 µL/well. The plates were then incubated overnight at 4 °C. The following day the plates were washed three times with ELISA wash buffer (PBS + 0.05% Tween-20) and then blocked with ELISA blocking buffer (PBS + 0.05% Tween-20 + 1% BSA), 200 µL/well, and incubated 1 h at room temperature on a shaker. Plates were again washed three times followed by the addition of the primary antibodies. Hybridoma supernatant was added neat, 50 µL/well; mouse serum was added 1:100 and then serially diluted 1:2 for 8 points, 50 µL/well. Purified antibodies were added 5 µg/mL in the first well and serially diluted down the plate 1:2 for 8 points, 50 µL/well. Primary antibody was incubated for 1 h at room temperature on a shaker. […] Stopping solution (2N Sulfuric acid) was added to the plates 50 µL/well, and then read on a plate reader (SpectraMax Molecular Devices) at 450 nm.

T1 sequence (F7EMH8 20-737): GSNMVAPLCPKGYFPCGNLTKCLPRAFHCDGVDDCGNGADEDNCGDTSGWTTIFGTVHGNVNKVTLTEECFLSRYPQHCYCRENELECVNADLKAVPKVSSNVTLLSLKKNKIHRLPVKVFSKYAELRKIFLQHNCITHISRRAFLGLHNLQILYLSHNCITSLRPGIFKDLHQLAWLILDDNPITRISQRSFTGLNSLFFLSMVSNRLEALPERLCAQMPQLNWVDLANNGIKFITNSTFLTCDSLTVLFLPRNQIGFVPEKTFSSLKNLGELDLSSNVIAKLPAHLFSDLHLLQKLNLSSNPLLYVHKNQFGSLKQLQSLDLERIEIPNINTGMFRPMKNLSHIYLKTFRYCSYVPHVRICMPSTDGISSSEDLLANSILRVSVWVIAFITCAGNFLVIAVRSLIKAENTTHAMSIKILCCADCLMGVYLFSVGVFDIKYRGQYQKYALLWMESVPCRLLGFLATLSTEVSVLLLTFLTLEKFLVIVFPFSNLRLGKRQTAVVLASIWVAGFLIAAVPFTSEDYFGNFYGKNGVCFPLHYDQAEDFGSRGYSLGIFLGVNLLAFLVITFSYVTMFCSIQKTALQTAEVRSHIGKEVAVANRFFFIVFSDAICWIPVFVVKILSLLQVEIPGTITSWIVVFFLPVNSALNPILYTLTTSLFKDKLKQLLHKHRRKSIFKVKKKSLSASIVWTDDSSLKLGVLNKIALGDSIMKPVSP
human RXFP2, sequence (Q8WXD0 whole entry): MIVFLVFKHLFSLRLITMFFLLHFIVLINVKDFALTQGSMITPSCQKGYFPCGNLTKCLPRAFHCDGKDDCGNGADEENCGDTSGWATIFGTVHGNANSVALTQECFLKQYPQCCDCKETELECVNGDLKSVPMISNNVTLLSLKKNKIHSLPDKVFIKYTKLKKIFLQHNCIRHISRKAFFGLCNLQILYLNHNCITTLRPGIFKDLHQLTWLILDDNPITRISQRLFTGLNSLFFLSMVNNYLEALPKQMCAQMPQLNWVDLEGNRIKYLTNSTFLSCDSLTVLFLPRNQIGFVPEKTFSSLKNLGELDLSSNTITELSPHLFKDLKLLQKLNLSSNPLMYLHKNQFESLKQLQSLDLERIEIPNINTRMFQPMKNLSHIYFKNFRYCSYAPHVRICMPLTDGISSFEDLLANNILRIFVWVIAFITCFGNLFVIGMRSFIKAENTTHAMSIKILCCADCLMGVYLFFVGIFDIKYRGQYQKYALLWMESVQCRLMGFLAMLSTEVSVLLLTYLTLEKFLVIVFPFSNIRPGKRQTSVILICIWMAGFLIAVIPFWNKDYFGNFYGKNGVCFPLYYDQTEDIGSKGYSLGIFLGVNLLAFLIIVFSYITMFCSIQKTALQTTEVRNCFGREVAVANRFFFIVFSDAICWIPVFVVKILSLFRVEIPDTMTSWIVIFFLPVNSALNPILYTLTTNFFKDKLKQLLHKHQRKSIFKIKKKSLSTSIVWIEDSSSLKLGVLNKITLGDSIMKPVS
T3 sequence (Q8WXD0 43-80 limits assumed): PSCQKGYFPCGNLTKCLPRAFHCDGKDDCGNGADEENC
T2 sequence (Q8WXD0 38-105): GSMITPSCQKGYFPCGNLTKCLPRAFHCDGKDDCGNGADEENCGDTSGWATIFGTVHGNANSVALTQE

B1: 1F2: RXFP2 monoclonal antibody from hybridoma, recombinantly expressed in a rat IgG2b backbone (antibody, V domains shown)
VH: QVQLKQSGPGLVQPSQSLSITCTVSGFSLTAYGVNWVRQSPGKGLEWLGVIWSGGNTDYNAPFISRLSITKDNSKSQVFFKMNSLEADDTAIYYCARAKGYYAMDYWGQGTSVTVSS
VL: DIQMTQSPASLSVSVGESVTITCRATENIYSNLVWYQQKQGQSPQLLVYAVTSLADGVPSRFSGSGSGTQYSLKINSLQSEDFGTYYCQHFWGTPYTFGGGTKLEIK
As to B1, in data set [1], the “half-life, extrapolated values” is not below 264 h; the “estimated dose to achieve tenfold higher IC50 HEK-rRXFP2 cAMP activity for approximately 28 days in rat” value is recorded as “approximately 10 mg/kg”; the AUClast is 3530 ± 746 µg·h/mL; the Cmax was found to be 7860 ± 1750 ng/mL. Also, the time of peak concentration (Tmax) in data set [1] is listed as 120 ± 42 h. In the data set with rat RXFP2 [2], this molecule yielded an IC50 of 0.32 nM. This molecule showed an IC50 in the data set with rat RXFP2 [3] of 0.1 nM. Further, the IC50 in the data set with rat RXFP2 [4] is 0.21 nM. In the data set with rat RXFP2 [5], the “HEK293-rat RXFP2 cAMP % Max Response” value was determined as 76.1% and the IC50 worked out at 19.1 nM. Besides, in the data set with human RXFP2, the IC50 was approximately 405 nM.

B2: 2D4: RXFP2 monoclonal antibody from hybridoma, recombinantly expressed in a rat IgG2b backbone (antibody, V domains shown)
VH: QVQLKESGPGLVAPSQSLSITCTVSGFSLTTYGISWVRQPPGKGLEWLGVIWTGGGTNYNSALKSRLSISKDNSKSQVFLKMNSLQTDDTARYYCARTEGYYVMDYWGQGTSVTVSS
VL: DIQMTQSPASLSVSVGETVTITCRASENIYSNLVWYQQKQGKSPQLLVYAATNLADGVPSRFSGSGSGTQYSLKINNLQSEDFGTYYCQHFWGPPWTFGGGTKLEIK
With B2, in data set [1], the “half-life, extrapolated values” was not below 264 h. In addition, the “estimated dose to achieve tenfold higher IC50 HEK-rRXFP2 cAMP activity for approximately 28 days in rat” value in data set [1] is listed as “approximately 9 mg/kg”. In [1], this molecule displayed an AUClast of 3210 ± 463 µg·h/mL. This molecule also had a Cmax in data set [1] of 7360 ± 1540 ng/mL. For the same molecule, in data set [1], the Tmax came to 168 ± 0 h. The IC50 was 0.14 nM with rat RXFP2 [2]; 0.11 nM with rat RXFP2 [3]; 0.17 nM in the data set with rat RXFP2 [4]; 0.05 nM with rat RXFP2 [6]; 21 nM with rat RXFP2 [5]; more than 1000 nM with human RXFP2. In addition, the “HEK293-rat RXFP2 cAMP % Max Response” value with rat RXFP2 [5] was 86.8%.

B3: 4F6: Human/rat cross-reactive RXFP2 monoclonal antibody, rat IgG2b backbone; binds the LDLa domain (antibody, V domains shown)
VH: EVQLQQSGPELVKPGASVKMSCKASGYTFTNYVLHWVKQKPGQGLEWIGYINPYNDGSKYNEKFKGRATLTSDKSSSTAYMELSSLTSEDSAVYYCARGGWLLDYFDYWGQGTTLTVSS
VL: DVLMTQSPLSLPVSLGEQASISCRSSQSIVHSDGDTYLEWYLQKPGQSPNLLIYKVSNRFSGVPDRFSGSGSGTDFTLKISRVEAEDLGVYYCFQGSHVPPTFGGGTKLEIK
For the molecule B3, the “cross reactivity to the human LDLa-linker” value with human LDLa-linker is “cross reactivity”. The “binding to linker-less human LDLa peptide” value in [7] was “bind”. In the data set with rat RXFP2 [5], the “HEK293-rat RXFP2 cAMP % Max Response” value stood at 80.4% and the IC50 was 48.5 nM. In the data set with human RXFP2, the “HEK293-human RXFP2 cAMP % Max Response” value is ~ 82.7% and the concentration for half-maximal inhibition (IC50) is approximately 354 nM.

Values taken from article PMC11162469, “Discovery of RXFP2 genetic association in resistant hypertensive men and RXFP2 antagonists for the treatment of resistant hypertension” (Scientific Reports, 2024).
